Starred links: 1 amine or outer side, 2 acyl side, 3 side chain; linkers in the order of their positions; H or OH if unused. Non-standard residues stand in square brackets, D forms with d. No end group written: not given here. *: point of attachment. 5‑TAMRA = CN(C)c1ccc2c(-c3ccc(C(=O)*)cc3C(=O)[O-])c3ccc(N(C)C)cc3[o+]c2c1; Propanoyl(3-triazol-4-yl) = O=C(CCc1cn([*:1])nn1)[*:2]; Gly(piperidin-4-yl) = N[C@H](C(=O)O)C1CCNCC1; Pent4ynoyl = C#CCCC(=O)*; Pra = C#CC[C@H](N)C(=O)O
How the values were obtained:
[1] = target: T1, human neurotensin receptor type 1 (hNTS1R), endogenous in HT-29 colon carcinoma cells (human (endogenous in HT-29), UniProt P30989 1-418); assay: radioligand binding; competition with [^3H]UR-MK300 at intact hNTS1R-expressing HT-29 cells, 23 ± 1 °C; pIC50 converted to pKi (Cheng–Prusoff); conditions: one partner purified
T1 construct: human neurotensin receptor type 1 (hNTS1R), endogenously expressed in HT-29 colon carcinoma cells; also called HT-29 cells; source: endogenous, intact HT-29 colon carcinoma cells

[2] = target: T2, human neurotensin receptor type 1 (hNTS1R), stably expressed in CHO cells (human, UniProt P30989 1-418); assay: radioligand binding; saturation binding at intact suspended CHO-hNTS1R cells, 96-well plates, filtration, DPBS1 with 1% BSA, 23 ± 1 °C; conditions: one partner purified
T2 construct: human neurotensin receptor type 1 (hNTS1R), wild type, stably expressed in Chinese hamster ovary cells; also called CHO-hNTS1R cells; CHO-NTS1R cells; source: CHO cells stably expressing hNTS1R; intact adherent cells, intact suspended cells and membrane preparations

[3] = target: T1, human neurotensin receptor type 1 …; assay: radioligand binding; saturation binding at intact adherent cells (CHO-hNTS1R or HT-29), DPBS1 with 1% BSA, 23 ± 1 °C; radioligand 1:1 diluted with its cold analogue; conditions: one partner purified
[4] = target: T2, human neurotensin receptor type 1 …; assay: as above; conditions: one partner purified
[5] = target: T2, human neurotensin receptor type 1 …; assay: radioligand binding; association (1.3 nM [^3H]13, 1.1 nM [^3H]18; biphasic fit) and dissociation (started with 1 μM NT(8–13)) at intact adherent CHO-hNTS1R cells, DPBS1, 23 ± 1 °C; kon(fast) and Kd(kin) calculated; conditions: one partner purified
[6] = target: T2, human neurotensin receptor type 1 …; assay: radioligand binding; association (1.8 nM [^3H]13, 1.2 nM [^3H]18; 96-well plates; biphasic fit) and dissociation (50 mL falcon tubes, started with 25 μM NT(8–13)) at intact suspended CHO-hNTS1R cells, DPBS1, 23 ± 1 °C; kon(fast) and Kd(kin) calculated; conditions: one partner purified
[7] = target: T2, human neurotensin receptor type 1 …; assay: cell-based or functional assay
[8] = target: T2, human neurotensin receptor type 1 …; assay: radioligand binding; saturation binding at membranes of CHO-hNTS1R cells, DPBS1 with 50 μM GppNHp and 100 μg/mL saponin, 23 °C; conditions: one partner purified
[9] = target: T2, human neurotensin receptor type 1 …; assay: radioligand binding; association (2.5 nM) and dissociation (12 nM preincubation, 30 min) at membranes of CHO-hNTS1R cells, DPBS1 with 50 μM GppNHp and 100 μg/mL saponin, 23 °C; kon and Kd(kin) calculated; conditions: one partner purified
[10] = target: T3, human neurotensin receptor type 2 (hNTS2R) in homogenates of HEK293T cells (human, UniProt O95665 1-410); assay: radioligand binding; competition with [^3H]UR-MK300 at homogenates of HEK293T cells transiently transfected with hNTS2R; Tris buffer (50 mM Tris HCl, 1 mM EDTA, pH 7.4) with 0.1% BSA; conditions: one partner purified
T3 construct: human neurotensin receptor type 2 (hNTS2R); also called HEK293T-hNTS2R cells; source: HEK293T, transiently transfected, homogenates

[11] = target: T1, human neurotensin receptor type 1 …; assay: flow cytometry on cells; equilibrium saturation binding at intact suspended CHO-hNTS1R or HT-29 cells, 96-well plates, DPBS1, 23 ± 1 °C, homogeneous; unspecific binding with 1 μM NT(8–13); conditions: one partner purified
[12] = target: T2, human neurotensin receptor type 1 …; assay: as above; conditions: one partner purified
[13] = target: T4, hNTS1R displayed on budded baculovirus particles (NTS1R-BBV) (human, UniProt P30989 1-418); assay: fluorescence polarisation; fluorescence anisotropy, association and dissociation (started with 1 μM SR142948) at hNTS1R-displaying BBVs, 27 °C, DPBS2; kon and Kd(kin) from a fit with koff constrained; conditions: one partner purified
T4 construct: human neurotensin receptor type 1 (hNTS1R) from pcDNA3.1-hNTS1-NlucC, subcloned into pIMACE-CMVintP10; also called hNTS1R-displaying BBVs; hNTS1R-Nluc

[14] = target: T4, hNTS1R displayed on budded baculovirus …; assay: fluorescence polarisation; fluorescence anisotropy, equilibrium binding: fixed ligand (0.3 or 1 nM), increasing amounts of hNTS1R-displaying BBVs, signal at 10 min, 27 °C, DPBS2; unspecific binding with 1 μM SR142948; conditions: one partner purified
[15] = target: T2, human neurotensin receptor type 1 …; assay: flow cytometry on cells; association (1 nM ligand) and dissociation (10 nM preincubation, started with ca. 25 μM NT(8–13)) at intact suspended CHO-hNTS1R cells, 5 mL tubes, DPBS1, 23 ± 1 °C; kon and Kd(kin) calculated; conditions: one partner purified
[16] = target: T2, human neurotensin receptor type 1 …; assay: high-content imaging (HCI) of fluorescent ligand on cells; association (2.5 nM ligand) and dissociation (started with 1 μM NT(8–13)) at intact adherent CHO-hNTS1R cells, DPBS1, 23 ± 1 °C; kon = (kobs – koff)/[FL], Kd(kin) = koff/kon; conditions: one partner purified
[17] = target: T1, human neurotensin receptor type 1 …; assay: high-content imaging (HCI) of fluorescent ligand on cells; equilibrium saturation binding at intact adherent CHO-hNTS1R or HT-29 cells, DPBS1 with 0.1% BSA, 23 ± 1 °C, washing step before reading; unspecific binding with 1 μM NT(8–13); conditions: one partner purified
[18] = target: T2, human neurotensin receptor type 1 …; assay: as above; conditions: one partner purified

T1 sequence (P30989 whole entry): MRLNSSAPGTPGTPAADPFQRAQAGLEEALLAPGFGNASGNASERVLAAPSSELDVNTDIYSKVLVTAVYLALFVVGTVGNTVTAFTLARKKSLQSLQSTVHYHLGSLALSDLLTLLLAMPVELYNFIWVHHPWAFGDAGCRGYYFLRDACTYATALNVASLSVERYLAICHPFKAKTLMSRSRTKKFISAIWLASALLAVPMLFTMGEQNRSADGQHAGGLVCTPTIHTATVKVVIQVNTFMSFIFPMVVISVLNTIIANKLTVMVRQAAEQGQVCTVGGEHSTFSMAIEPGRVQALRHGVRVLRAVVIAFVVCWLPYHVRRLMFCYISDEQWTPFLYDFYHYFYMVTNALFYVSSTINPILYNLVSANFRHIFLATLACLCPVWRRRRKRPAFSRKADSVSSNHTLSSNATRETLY
T4 sequence (P30989 whole entry): as above
T2 sequence (P30989 whole entry): as above
T3 sequence (O95665 whole entry): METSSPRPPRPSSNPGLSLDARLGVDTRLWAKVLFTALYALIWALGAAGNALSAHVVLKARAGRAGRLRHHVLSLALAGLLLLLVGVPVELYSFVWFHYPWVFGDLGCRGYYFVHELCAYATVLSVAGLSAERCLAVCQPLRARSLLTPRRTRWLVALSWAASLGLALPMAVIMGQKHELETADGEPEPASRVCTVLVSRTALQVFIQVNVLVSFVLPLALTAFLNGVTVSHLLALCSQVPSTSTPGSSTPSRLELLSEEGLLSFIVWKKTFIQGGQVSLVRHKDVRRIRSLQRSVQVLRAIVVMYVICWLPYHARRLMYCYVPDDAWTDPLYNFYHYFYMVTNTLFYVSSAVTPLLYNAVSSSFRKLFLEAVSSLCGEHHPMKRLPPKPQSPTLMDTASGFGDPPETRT

B1: 5-TAMRA-labeled, propionylated NT(6–13) derivative 15 (peptide)
peptide: {5‑TAMRA-Propanoyl(3-triazol-4-yl)}-[dK](propanoyl)PRRPYIL
notes: neurotensin NT(6–13) with D-Lys at position 6, printed in three-letter code; numbers count on: the mature neurotensin; also called peptide 15; source: synthetic peptide (from 8 by propionylation and click reaction, preparative HPLC)
Ki [1]: 3 nM

B2: [^3H]18, tritiated analogue of the Cy3B-labeled peptide 18 (peptide)
chain: XPRRPYIL
modifications: as 18, with a [^3H]propionyl instead of the propionyl group at the N^ω-carbamoylated Arg8; N-terminal Cy3B through a triazolylpropanoyl group; position 6 (X) = pipGly; position 11 = …
Kd [2]: 1.2 nM
Kd [3]: 1.9 nM
Kd [4]: 1.1 nM
koff [5]: 0.000433 s⁻¹
koff [6]: 0.0005 s⁻¹

B3: N^α-(Pent-4-ynoyl)-2-(piperidin-4-yl)-Gly-Pro-N^ω-[(4-aminobutyl)aminocarbonyl]Arg-Arg-Pro-Tyr-Ile-Leu (6) (peptide)
chain: XPRRPYIL
modifications: N-terminal N^α-(pent-4-ynoyl); position 6 (X) = 2-(piperidin-4-yl)-Gly (pipGly); Arg8 = N^ω-[(4-aminobutyl)aminocarbonyl]Arg
EC50 of NTS1R agonism, Fura-2 Ca^2+ assay at CHO-NTS1R cells [7]: 0.0065 nM
Ki [1]: 0.64 nM

{4‑aminobutanoyl}-[Pra][Gly(piperidin-4-yl)]PRRPYIL [N^α-(4-Aminobutanoyl)-2-(prop-2-ynyl)-Gly-2-(piperidin-4-yl)-Gly-Pro-Arg-Arg-Pro-Tyr-Ile-Leu (9)]
Ki [1]: 0.33 nM

B4: [^3H]13, tritiated analogue of the 5-TAMRA-labeled peptide 13 (peptide)
chain: XPRRPYIL
modifications: as 13, with a [^3H]propionyl instead of the propionyl group at the N^ω-carbamoylated Arg8; N-terminal 5-TAMRA through a triazolylpropanoyl group; position 6 (X) = pipGly
Kd [8]: 6.2 nM
Kd [2]: 1.8 nM
Kd [3]: 1.2 nM
Kd [4]: 1.3 nM
Kd [9]: 2.7 nM
koff [9]: 0.00617 s⁻¹
kon [9]: 2.17e+06 M⁻¹ s⁻¹
koff [5]: 0.000233 s⁻¹
koff [6]: 0.0006 s⁻¹

B5: N^α-(Pent-4-ynoyl)-Lys-Pro-Arg-Arg-Pro-Tyr-Ile-Leu (7) (peptide)
peptide: Pent4ynoyl-KPRRPYIL
notes: neurotensin NT(6–13), printed in three-letter code; numbers count on: the mature neurotensin; also called peptide 7; source: synthetic peptide (SPPS, preparative HPLC)
Ki [1]: 0.54 nM

B6: N^α-(Pent-4-ynoyl)-2-(piperidin-4-yl)-Gly-Pro-N^ω-[(4-aminobutyl)aminocarbonyl]Arg-Arg-Pro-β,β-dimethyl-D-Tyr-Ile-Leu (10b) (peptide)
chain: XPRRPYIL
modifications: N-terminal N^α-(pent-4-ynoyl); position 6 (X) = 2-(piperidin-4-yl)-Gly (pipGly); Arg8 = N^ω-[(4-aminobutyl)aminocarbonyl]Arg; position 11 = β,β-dimethyl-D-Tyr
Ki [1]: 140 nM

B7: 5-TAMRA-labeled, propionylated NT(6–13) derivative 14 (peptide)
peptide: {5‑TAMRA-Propanoyl(3-triazol-4-yl)}-K(propanoyl)PRRPYIL
notes: neurotensin NT(6–13), printed in three-letter code; numbers count on: the mature neurotensin; also called peptide 14; source: synthetic peptide (from 7 by propionylation and click reaction, preparative HPLC)
Ki [1]: 1.5 nM

B8: 5-TAMRA-labeled, propionylated NT(6–13) derivative 16 (peptide)
chain: {4‑(N-propanoyl)aminobutanoyl}-X[Gly(piperidin-4-yl)]PRRPYIL
modifications: not fully specified (residue 1); printed as *N*^α^-[(4-(*N*-Propanoyl)aminobutanoyl)]-2-(1-(1-*N*-((1-carboxylato-2-(6-(dimethylamino)-3-(dimethyliminio)-3*H*-xanthen-9-yl)phen-5-yl)1-oxomethyl)aminoprop-3-yl-1*H*-1,2,3-triazol-4-yl)methyl)-Gly-2-(piperidin-4-yl)-Gly-Pro-Arg-Arg-Pro-Tyr-Ile-Leu
Ki [1]: 0.77 nM

B9: N^α-(Pent-4-ynoyl)-D-Lys-Pro-Arg-Arg-Pro-Tyr-Ile-Leu (8) (peptide)
peptide: Pent4ynoyl-[dK]PRRPYIL
notes: neurotensin NT(6–13) with D-Lys at position 6, printed in three-letter code; numbers count on: the mature neurotensin; also called peptide 8; source: synthetic peptide (SPPS, preparative HPLC)
Ki [1]: 0.85 nM

B10: 5-TAMRA-labeled, propionylated NT(6–13) derivative 13 (UR-FE051) (peptide)
chain: XPRRPYIL
modifications: N-terminus: 5-TAMRA attached through a 3-(1H-1,2,3-triazol-4-yl)propanoyl group; position 6 (X) = 2-(piperidin-4-yl)-Gly (pipGly); Arg8 = N^ω-[(4-(N-propanoyl)aminobutyl)aminocarbonyl]Arg
EC50 of NTS1R agonism, Fura-2 Ca^2+ assay at CHO-NTS1R cells [7]: 0.05 nM
Ki [1]: 1.1 nM
Ki [10]: 2.4 nM
Kd [11]: 0.25 nM
Kd [12]: 2.6 nM
Kd [13]: 1 nM
koff [13]: 0.0102 s⁻¹
kon [13]: 1.67e+07 M⁻¹ s⁻¹
Kd [14]: 1.3 nM
Kd [15]: 0.041 nM
koff [15]: 0.000333 s⁻¹
kon [15]: 8e+06 M⁻¹ s⁻¹
Kd [16]: 2.8 nM
koff [16]: 0.000733 s⁻¹
kon [16]: 267000 M⁻¹ s⁻¹
Kd [17]: 4.7 nM
Kd [18]: 1.1 nM

B11: N^α-(Pent-4-ynoyl)-2-(piperidin-4-yl)-Gly-Pro-N^ω-[(4-aminobutyl)aminocarbonyl]Arg-Arg-Pro-β,β-dimethyl-L-Tyr-Ile-Leu (10a) (peptide)
chain: XPRRPYIL
modifications: N-terminal N^α-(pent-4-ynoyl); position 6 (X) = 2-(piperidin-4-yl)-Gly (pipGly); Arg8 = N^ω-[(4-aminobutyl)aminocarbonyl]Arg; position 11 = β,β-dimethyl-L-Tyr
EC50 of NTS1R agonism, Fura-2 Ca^2+ assay at CHO-NTS1R cells [7]: 0.32 nM
Ki [1]: 1.1 nM

Reference: article PMC11440508, “Dually Labeled Neurotensin NTS1R Ligands for Probing Radiochemical and Fluorescence-Based Binding Assays” (Journal of Medicinal Chemistry, 2024)
